Among the data in patent US20240391961A1 are FC values, retold here.

Assay [1] addresses T1, 14-3-3ζ nhpSer58 with a FLAG tag at its N-terminus (Homo sapiens (Human)), P63104.
T1 chain: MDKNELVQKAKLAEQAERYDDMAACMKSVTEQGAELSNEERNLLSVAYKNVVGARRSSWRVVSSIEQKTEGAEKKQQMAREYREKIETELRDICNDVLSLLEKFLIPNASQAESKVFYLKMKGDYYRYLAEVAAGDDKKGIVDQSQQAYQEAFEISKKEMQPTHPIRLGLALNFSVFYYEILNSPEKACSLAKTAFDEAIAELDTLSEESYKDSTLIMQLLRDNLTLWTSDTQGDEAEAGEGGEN
Conditions: remark: other sources report otherwise.

Assay [2] has as its target 14-3-3ζ nhpSer58 with a FLAG tag at its N-terminus (Homo sapiens (Human)) (UniProt P63104).

B1: 14-3-3 protein theta [OS = Homo sapiens], P27348 1-245 (protein, UniProt P27348 1-245, looked up)
chain: MEKTELIQKAKLAEQAERYDDMATCMKAVTEQGAELSNEERNLLSVAYKNVVGGRRSAWRVISSIEQKTDTSDKKLQLIKDYREKVESELRSICTTVLELLDKYLIANATNPESKVFYLKMKGDYFRYLAEVACGDDRKQTIDNSQGAYQEAFDISKKEMQPTHPIRLGLALNFSVFYYEILNNPELACTLAKTAFDEAIAELDTLNEDSYKDSTLIMQLLRDNLTLWTSDSAGEECDAAEGAEN
Regarding B1, the FC in assay [1] was determined as 0.0473 fold.

B2: GTPase-activating protein and VPS9 domain-containing protein 1 [OS = Homo sapiens] (protein, UniProt Q14C86 1-1478, looked up)
chain: MVKLDIHTLAHHLKQERLYVNSEKQLIQRLNADVLKTAEKLYRTAWIAKQQRINLDRLIITSAEASPAECCQHAKILEDTQFVDGYKQLGFQETAYGEFLSRLRENPRLIASSLVAGEKLNQENTQSVIYTVFTSLYGNCIMQEDESYLLQVLRYLIEFELKESDNPRRLLRRGTCAFSILFKLFSEGLFSAKLFLTATLHEPIMQLLVEDEDHLETDPNKLIERFSPSQQEKLFGEKGSDRFRQKVQEMVESNEAKLVALVNKFIGYLKQNTYCFPHSLRWIVSQMYKTLSCVDRLEVGEVRAMCTDLLLACFICPAVVNPEQYGIISDAPINEVARFNLMQVGRLLQQLAMTGSEEGDPRTKSSLGKFDKSCVAAFLDVVIGGRAVETPPLSSVNLLEGLSRTVVYITYSQLITLVNFMKSVMSGDQLREDRMALDNLLANLPPAKPGKSSSLEMTPYNTPQLSPATTPANKKNRLPIATRSRSRTNMLMDLHMDHEGSSQETIQEVQPEEVLVISLGTGPQLTPGMMSENEVLNMQLSDGGQGDVPVDENKLHGKPDKTLRFSLCSDNLEGISEGPSNRSNSVSSLDLEGESVSELGAGPSGSNGVEALQLLEHEQATTQDNLDDKLRKFEIRDMMGLTDDRDISETVSETWSTDVLGSDFDPNIDEDRLQEIAGAAAENMLGSLLCLPGSGSVLLDPCTGSTISETTSEAWSVEVLPSDSEAPDLKQEERLQELESCSGLGSTSDDTDVREVSSRPSTPGLSVVSGISATSEDIPNKIEDLRSECSSDFGGKDSVTSPDMDEITHGAHQLTSPPSQSESLLAMFDPLSSHEGASAVVRPKVHYARPSHPPPDPPILEGAVGGNEARLPNFGSHVLTPAEMEAFKQRHSYPERLVRSRSSDIVSSVRRPMSDPSWNRRPGNEERELPPAAAIGATSLVAAPHSSSSSPSKDSSRGETEERKDSDDEKSDRNRPWWRKRFVSAMPKAPIPFRKKEKQEKDKDDLGPDRFSTLTDDPSPRLSAQAQVAEDILDKYRNAIKRTSPSDGAMANYESTGDNHDRDLSSKLLYHSDKEVMGDGESAHDSPRDEALQNISADDLPDSASQAAHPQDSAFSYRDAKKKLRLALCSADSVAFPVLTHSTRNGLPDHTDPEDNEIVCFLKVQIAEAINLQDKNLMAQLQETMRCVCRFDNRTCRKLLASIAEDYRKRAPYIAYLTRCRQGLQTTQAHLERLLQRVLRDKEVANRYFTTVCVRLLLESKEKKIREFIQDFQKLTAADDKTAQVEDFLQFLYGAMAQDVIWQNASEEQLQDAQLAIERSVMNRIFKLAFYPNQDGDILRDQVLHEHIQRLSKVVTANHRALQIPEVYLREAPWPSAQSEIRTISAYKTPRDKVQCILRMCSTIMNLLSLANEDSVPGADDFVPVLVFVLIKANPPCLLSTVQYISSFYASCLSGEESYWWMQFTAAVEFIKTIDDRK
Take B2: the FC in assay [2] is 0.177 fold.

B3: WD and tetratricopeptide repeats protein 1 [OS = Homo sapiens] (protein, UniProt Q8N5D0 1-677, looked up)
chain: MAKVNITRDLIRRQIKERGALSFERRYHVTDPFIRRLGLEAELQGHSGCVNCLEWNEKGDLLASGSDDQHTIVWDPLHHKKLLSMHTGHTANIFSVKFLPHAGDRILITGAADSKVHVHDLTVKETIHMFGDHTNRVKRIATAPMWPNTFWSAAEDGLIRQYDLRENSKHSEVLIDLTEYCGQLVEAKCLTVNPQDNNCLAVGASGPFVRLYDIRMIHNHRKSMKQSPSAGVHTFCDRQKPLPDGAAQYYVAGHLPVKLPDYNNRLRVLVATYVTFSPNGTELLVNMGGEQVYLFDLTYKQRPYTFLLPRKCHSSGEVQNGKMSTNGVSNGVSNGLHLHSNGFRLPESRGHVSPQVELPPYLERVKQQANEAFACQQWTQAIQLYSKAVQRAPHNAMLYGNRAAAYMKRKWDGDHYDALRDCLKAISLNPCHLKAHFRLARCLFELKYVAEALECLDDFKGKFPEQAHSSACDALGRDITAALFSKNDGEEKKGPGGGAPVRLRSTSRKDSISEDEMVLRERSYDYQFRYCGHCNTTTDIKEANFFGSNAQYIVSGSDDGSFFIWEKETTNLVRVLQGDESIVNCLQPHPSYCFLATSGIDPVVRLWNPRPESEDLTGRVVEDMEGASQANQRRMNADPLEVMLLNMGYRITGLSSGGAGASDDEDSSEGQVQCRPS
In turn, B3 had an FC in assay [2] of 0.202 fold.

B4: transformer-2 protein homolog beta [OS = Homo sapiens] (protein, UniProt P62995 2-288, looked up)
chain: SDSGEQNYGERESRSASRSGSAHGSGKSARHTPARSRSKEDSRRSRSKSRSRSESRSRSRRSSRRHYTRSRSRSRSHRRSRSRSYSRDYRRRHSHSHSPMSTRRRHVGNRANPDPNCCLGVFGLSLYTTERDLREVFSKYGPIADVSIVYDQQSRRSRGFAFVYFENVDDAKEAKERANGMELDGRRIRVDFSITKRPHTPTPGIYMGRPTYGSSRRRDYYDRGYDRGYDDRDYYSRSYRGGGGGGGGWRAAQDRDQIYRRRSPSPYYSRGGYRSRSRSRSYSPRRY
B4 had an FC in assay [2] of 0.194 fold.

B5: Histone deacetylase complex subunit SAP18 [OS = Homo sapiens] (protein, UniProt O00422 2-153, looked up)
chain: AVESRVTQEEIKKEPEKPIDREKTCPLLLRVFTTNNGRHHRMDEFSRGNVPSSELQIYTWMDATLKELTSLVKEVYPEARKKGTHFNFAIVFTDVKRPGYRVKEIGSTMSGRKGTDDSMTLQSQKFQIGDYLDIAITPPNRAPPPSGRMRPY
On to B5, for which the FC in assay [2] was 0.187 fold.

B6: serrate RNA effector molecule homolog [OS = Homo sapiens] (protein, UniProt Q9BXP5 2-876, looked up)
chain: GDSDDEYDRRRRDKFRRERSDYDRSRERDERRRGDDWNDREWDRGRERRSRGEYRDYDRNRRERFSPPRHELSPPQKRMRRDWDEHSSDPYHSGYEMPYAGGGGGPTYGPPQPWGHPDVHIMQHHVLPIQARLGSIAEIDLGVPPPVMKTFKEFLLSLDDSVDETEAVKRYNDYKLDFRRQQMQDFFLAHKDEEWFRSKYHPDEVGKRRQEARGALQNRLRVFLSLMETGWFDNLLLDIDKADAIVKMLDAAVIKMEGGTENDLRILEQEEEEEQAGKPGEPSKKEEGRAGAGLGDGERKTNDKDEKKEDGKQAENDSSNDDKTKKSEGDGDKEEKKEDSEKEAKKSSKKRNRKHSGDDSFDEGSVSESESESESGQAEEEKEEAEEALKEKEKPKEEEWEKPKDAAGLECKPRPLHKTCSLFMRNIAPNISRAEIISLCKRYPGFMRVALSEPQPERRFFRRGWVTFDRSVNIKEICWNLQNIRLRECELSPGVNRDLTRRVRNINGITQHKQIVRNDIKLAAKLIHTLDDRTQLWASEPGTPPLPTSLPSQNPILKNITDYLIEEVSAEEEELLGSSGGAPPEEPPKEGNPAEINVERDEKLIKVLDKLLLYLRIVHSLDYYNTCEYPNEDEMPNRCGIIHVRGPMPPNRISHGEVLEWQKTFEEKLTPLLSVRESLSEEEAQKMGRKDPEQEVEKFVTSNTQELGKDKWLCPLSGKKFKGPEFVRKHIFNKHAEKIEEVKKEVAFFNNFLTDAKRPALPEIKPAQPPGPAQILPPGLTPGLPYPHQTPQGLMPYGQPRPPILGYGAGAVRPAVPTGGPPYPHAPYGAGRGNYDAFRGQGGYPGKPRNRMVRGDPRAIVEYRDLDAPDDVDFF
B6 showed an FC in assay [2] of 0.12 fold.

B7: 14-3-3 protein epsilon [OS = Homo sapiens], P62258 1-255 (protein, UniProt P62258 1-255, looked up)
chain: MDDREDLVYQAKLAEQAERYDEMVESMKKVAGMDVELTVEERNLLSVAYKNVIGARRASWRIISSIEQKEENKGGEDKLKMIREYRQMVETELKLICCDILDVLDKHLIPAANTGESKVFYYKMKGDYHRYLAEFATGNDRKEAAENSLVAYKAASDIAMTELPPTHPIRLGLALNFSVFYYEILNSPDRACRLAKAAFDDAIAELDTLSEESYKDSTLIMQLLRDNLTLWTSDMQGDGEEQNKEALQDVEDENQ
With B7, in assay [1], the FC was 0.0482 fold.

B8: 14-3-3 protein sigma [OS = Homo sapiens], P31947 1-248 (protein, UniProt P31947 1-248, looked up)
chain: MERASLIQKAKLAEQAERYEDMAAFMKGAVEKGEELSCEERNLLSVAYKNVVGGQRAAWRVLSSIEQKSNEEGSEEKGPEVREYREKVETELQGVCDTVLGLLDSHLIKEAGDAESRVFYLKMKGDYYRYLAEVATGDDKKRIIDSARSAYQEAMDISKKEMPPTNPIRLGLALNFSVFHYEIANSPEEAISLAKTTFDEAMADLHTLSEDSYKDSTLIMQLLRDNLTLWTADNAGEEGGEAPQEPQS
In assay [1], B8 gave an FC of 0.0526 fold.

B9: Serine/arginine-rich splicing factor 10 [OS = Homo sapiens], O75494 1-262 (protein, UniProt O75494 1-262, looked up)
chain: MSRYLRPPNTSLFVRNVADDTRSEDLRREFGRYGPIVDVYVPLDFYTRRPRGFAYVQFEDVRDAEDALHNLDRKWICGRQIEIQFAQGDRKTPNQMKAKEGRNVYSSSRYDDYDRYRRSRSRSYERRRSRSRSFDYNYRRSYSPRNSRPTGRPRRSRSHSDNDRFKHRNRSFSRSKSNSRSRSKSQPKKEMKAKSRSRSASHTKTRGTSKTDSKTHYKSGSRYEKESRKKEPPRSKSQSRSQSRSRSKSRSRSWTSPKSSGH
Take B9: the FC in assay [1] is 0.0496 fold.
